Measurements reported in publication PMC11490884 (The Journal of Biological Chemistry, 2024).
Values belong to the binder of their own block, whether it stands above or below them.

Molecular target: T1, ASAP1 SH3 domain (aa. 1083–1147) (mouse, UniProt Q9QWY8 1083-1147)
T1 sequence (looked up): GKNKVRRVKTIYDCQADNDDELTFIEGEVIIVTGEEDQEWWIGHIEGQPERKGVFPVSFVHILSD
Experiment: ITC

fold decrease of the binding affinity against the wild-type gAnkB peptide: ~3 fold
B4: gAnkB peptide P1703G (peptide, UniProt Q01484 1699-1710, looked up)
peptide: GIKKGVRRKLKE

fold weakening of the interaction against the wild-type gAnkB peptide: ~105 fold
B5: gAnkB peptide R1705E (peptide, UniProt Q01484 1699-1710, looked up)
peptide: GIKKPVERKLKE

More lines, now with the values behind:

B1: gAnkB (aa. 1682–1731) (domain or fragment, human, UniProt Q01484 1682-1731, looked up)
chain: IPPDETQSTQKQHKPSLGIKKPVRRKLKEKQKQKEEGLQASAEKAELKKG
Kd: ~140 nM

B2: 12-residue peptide derived from gAnkB (aa. 1699–1710) (peptide, UniProt Q01484 1699-1710, looked up)
peptide: GIKKPVRRKLKE
Kd: ~190 nM

B3: gAnkB peptide K1702E (peptide, UniProt Q01484 1699-1710, looked up)
peptide: GIKEPVRRKLKE
fold weakening of the interaction against the wild-type gAnkB peptide: ~264 fold
